Assay results: article PMC8298264, “Function of cofactor Akirin2 in the regulation of gene expression in model human neutrophil-like HL60 cells” (Bioscience Reports, 2021)

Tested on: human HL60 cells
Assay: SWATH-MS proteomics, differential protein representation, akirin2 KO vs WT HL60 cells
Type: cell-based
Details: akirin2 KO vs WT HL60 cells; sheet "Under-represented in KO"
Outline: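 Read-out is label-free SWATH-MS protein area, globally normalized to total detected-protein area, with identifications held at 1% FDR against a library from information-dependent acquisition.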

B1: sp¦Q86UP2¦KTN1_HUMAN (protein, UniProt Q86UP2 1-1357, looked up)
Kinectin: MEFYESAYFIVLIPSIVITVIFLFFWLFMKETLYDEVLAKQKREQKLIPTKTDKKKAEKKKNKKKEIQNGNLHESDSESVPRDFKLSDALAVEDDQVAPVPLNVVETSSSVRERKKKEKKQKPVLEEQVIKESDASKIPGKKVEPVPVTKQPTPPSEAAASKKKPGQKKSKNGSDDQDKKVETLMVPSKRQEALPLHQETKQESGSGKKKASSKKQKTENVFVDEPLIHATTYIPLMDNADSSPVVDKREVIDLLKPDQVEGIQKSGTKKLKTETDKENAEVKFKDFLLSLKTMMFSEDEALCVVDLLKEKSGVIQDALKKSSKGELTTLIHQLQEKDKLLAAVKEDAAATKDRCKQLTQEMMTEKERSNVVITRMKDRIGTLEKEHNVFQNKIHVSYQETQQMQMKFQQVREQMEAEIAHLKQENGILRDAVSNTTNQLESKQSAELNKLRQDYARLVNELTEKTGKLQQEEVQKKNAEQAATQLKVQLQEAERRWEEVQSYIRKRTAEHEAAQQDLQSKFVAKENEVQSLHSKLTDTLVSKQQLEQRLMQLMESEQKRVNKEESLQMQVQDILEQNEALKAQIQQFHSQIAAQTSASVLAEELHKVIAEKDKQIKQTEDSLASERDRLTSKEEELKDIQNMNFLLKAEVQKLQALANEQAAAAHELEKMQQSVYVKDDKIRLLEEQLQHEISNKMEEFKILNDQNKALKSEVQKLQTLVSEQPNKDVVEQMEKCIQEKDEKLKTVEELLETGLIQVATKEEELNAIRTENSSLTKEVQDLKAKQNDQVSFASLVEELKKVIHEKDGKIKSVEELLEAELLKVANKEKTVQDLKQEIKALKEEIGNVQLEKAQQLSITSKVQELQNLLKGKEEQMNTMKAVLEEKEKDLANTGKWLQDLQEENESLKAHVQEVAQHNLKEASSASQFEELEIVLKEKENELKRLEAMLKERESDLSSKTQLLQDVQDENKLFKSQIEQLKQQNYQQASSFPPHEELLKVISEREKEISGLWNELDSLKDAVEHQRKKNNDLREKNWEAMEALASTEKMLQDKVNKTSKERQQQVEAVELEAKEVLKKLFPKVSVPSNLSYGEWLHGFEKKAKECMAGTSGSEEVKVLEHKLKEADEMHTLLQLECEKYKSVLAETEGILQKLQRSVEQEENKWKVKVDESHKTIKQMQSSFTSSEQELERLRSENKDIENLRREREHLEMELEKAEMERSTYVTEVRELKDLLTELQKKLDDSYSEAVRQNEELNLLKAQLNETLTKLRTEQNERQKVAGDLHKAQQSLELIQSKIVKAAGDTTVIENSDVSPETESSEKETMSVSLNQTVTQLQQLLQAVNQQLTKEKEHYQVLE
- Fold Change: 0.24
- Log (Fold Change): -0.6198
